According to article PMC4854210, “IL-27 Promotes Proliferation of Human Leukemic Cell Lines Through the MAPK/ERK Signaling Pathway and Suppresses Sensitivity to Chemotherapeutic Drugs” (Journal of Interferon & Cytokine Research, 2016):

Experiments:
[1] = biological target: T1, Recombinant human IL27Rα-Fc chimera (human, UniProt Q6UWB1 33-516); test: SPR; IL-27Rα-Fc or gp130-Fc captured on mouse anti-human IgG-Fc antibodies amine-coupled to a CM5 chip; IL-27 injected at increasing concentrations (multicycle), 30 μL/min; BIAcore T100, 25°C, HBS-EP+; double referenced; global fit, 1:1 Langmuir model; KD = kd/ka; conditions: both partners purified
T1 construct: IL-27 receptor subunit alpha (IL-27Rα, WSX-1, TCCR), human; Captured on the chip by anti-human IgG-Fc antibodies; also called IL-27Rα-Fc fusion protein; IL-27R-Fc fusion protein; source: bought: R & D Systems
T1 sequence (looked up): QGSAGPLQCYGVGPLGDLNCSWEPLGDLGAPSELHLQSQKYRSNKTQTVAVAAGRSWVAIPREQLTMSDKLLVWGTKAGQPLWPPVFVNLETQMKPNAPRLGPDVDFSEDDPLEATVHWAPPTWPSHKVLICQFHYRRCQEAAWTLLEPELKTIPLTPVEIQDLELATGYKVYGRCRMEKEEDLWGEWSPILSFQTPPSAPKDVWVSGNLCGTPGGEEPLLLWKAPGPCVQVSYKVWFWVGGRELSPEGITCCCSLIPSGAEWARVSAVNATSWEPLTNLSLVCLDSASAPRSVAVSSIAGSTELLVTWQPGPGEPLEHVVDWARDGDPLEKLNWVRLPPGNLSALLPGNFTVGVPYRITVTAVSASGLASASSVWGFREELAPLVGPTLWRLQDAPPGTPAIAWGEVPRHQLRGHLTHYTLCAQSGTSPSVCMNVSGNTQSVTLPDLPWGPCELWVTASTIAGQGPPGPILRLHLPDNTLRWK

[2] = biological target: T2, Recombinant human gp130-Fc chimera (human, UniProt P40189-1 23-619); test: as above; conditions: both partners purified
T2 construct: gp130 (interleukin-6 receptor subunit beta), human; Captured on the chip by anti-human IgG-Fc antibodies; also called gp130-Fc fusion protein; source: bought: R & D Systems
T2 sequence (looked up): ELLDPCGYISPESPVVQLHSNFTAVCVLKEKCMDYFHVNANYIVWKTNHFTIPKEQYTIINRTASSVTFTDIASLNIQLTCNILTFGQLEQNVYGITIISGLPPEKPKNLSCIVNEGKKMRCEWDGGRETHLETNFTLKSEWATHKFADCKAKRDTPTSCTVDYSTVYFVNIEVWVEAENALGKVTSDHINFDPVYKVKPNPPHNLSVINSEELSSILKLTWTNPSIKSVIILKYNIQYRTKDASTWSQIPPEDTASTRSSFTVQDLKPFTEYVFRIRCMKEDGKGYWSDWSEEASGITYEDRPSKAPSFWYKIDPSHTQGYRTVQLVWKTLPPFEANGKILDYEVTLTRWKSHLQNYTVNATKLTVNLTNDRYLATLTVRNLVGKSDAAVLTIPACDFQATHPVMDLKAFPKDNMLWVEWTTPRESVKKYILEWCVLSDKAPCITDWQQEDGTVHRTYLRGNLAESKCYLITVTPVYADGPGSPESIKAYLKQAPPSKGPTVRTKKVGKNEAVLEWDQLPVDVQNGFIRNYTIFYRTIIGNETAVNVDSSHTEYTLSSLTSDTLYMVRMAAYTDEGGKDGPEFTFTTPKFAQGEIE

B1: Recombinant human IL-27 (ligand)
chain 1: FPRPPGRPQLSLQELRREFTVSLHLARKLLSEVRGQAHRFAESHLPGVNLYLLPLGEQLPDVSLTFQAWRRLSDPERLCFISTTLQPFHALLGGLGTQGRWTNMERMQLWAMRLDLRDLQRHLRFQVLAAGFNLPEEEEEEEEEEEEERKGLLPGALGSALQGPAQVSWPQLLSTYRLLHSLELVLSRAVRELLLLSKAGHSVWPLGFPTLSPQP
chain 2: RKGPPAALTLPRVQCRASRYPIAVDCSWTLPPAPNSTSPVSFIATYRLGMAARGHSWPCLQQTPTSTSCTITDVQLFSMAPYVLNVTAVHPWGSSSSFVPFITEHIIKPDPPEGVRLSPLAERQLQVQWEPPGSWPFPEIFSLKYWIRYKRQGAARFHRVGPIEATSFILRAVRPRARYYVQVAAQDLTDYGELSDWSLPATATMSLGK
notes: IL-27 subunit p28 (cytokine subunit of the heterodimeric IL-27), human; Epstein-Barr virus-induced gene 3 (EBI3), the soluble cytokine receptor subunit of IL-27, human; also called interleukin-27; source: bought: R & D Systems
**Q.** B1 was tested. Which Kd [1] did it give?
**A.** Its Kd is 0.0457 nM.

**Q.** And the koff [1]?
**A.** Its koff is 0.00414 s⁻¹.

**Q.** What about the kon [1] of the same binder?
**A.** Its kon is 9.08e+07 M⁻¹ s⁻¹.

**Q.** And the Kd [2]?
**A.** The Kd was 2.74 nM.

**Q.** And the koff [2]?
**A.** The koff was 456 s⁻¹.
